{"source": "patent US7919300B2", "about": "“Glucose isomerase mutants” (priority 2004, dated 2011)", "proteins": {"B1": {"name": "Thermoanaerobacterium saccharolyticum glucose isomerase mutant MGI-4 (W139F/R182A/F187S/T299Q), SEQ ID NO.: 32 (Thermoanaerobacterium saccharolyticum; … (protein)", "chain": "MNKYFENVSKIKYEGPKSNNPYSFKFYNPEEVIDGKTMEEHLRFSIAYWHTFTADGTDQFGKATMQRPWNHYTDPMDIAKARVEAAFEFFDKINAPFFCFHDRDIAPEGDTLRETNKNLDTIVAMIKDYLKTSKTKVLFGTANLFSNPRFVHGASTSCNADVFAYSAAQVKKALEITKELGAENYVSWGGREGYETLLNTDMELELDNFARFLHMAVDYAKEIGFEGQFLIEPKPKEPTKHQYDFDVANVLAFLRKYDLDKYFKVNIEANHATLAFHDFQHELRYARINGVLGSIDANQGDMLLGWDTDQFPTDIRMTTLAMYEVIKMGGFDKGGLNFDAKVRRASFEPEDLFLGHIAGMDAFAKGFKVAYKLVKDGVFDKFIEERYASYKEGIGADIVSGKADFKSLEKYALEHSQIVNKSGRQELLESILNQYLFAE"}}, "substrate": "OC[C@H]1OC(O)[C@H](O)[C@@H](O)[C@@H]1O", "test": "Measurement of kinetic parameters of glucose isomerase mutant MGI-4 with D-glucose as substrate", "assay_type": "biochemical, Thermoanaerobacterium saccharolyticum", "conditions": "pH 6.5, 20 mM sodium phosphate, 250 μM CoCl2, 5 mM MgCl2, 10 minutes", "method": "Fragment AFSR was amplified using primer pair 182AF (see Table 1 below) and 187SR (see Table 1) on the following condition: 20 mM Tris-HCl (pH 8.8), 10 mM KCl, 10 mM (NH4)2SO4, 2 mM MgSO4, 0.1% Triton X-100, 0.4 μM Primer 182AF and 0.4 μM Primer 187SR, 50 μM DATP, 50 μM dTTP, 50 μM dCTP, 50 μM dGTP, 1.5 U Pfu DNA polymerase, 20 ng pGEMT-TS, and the total volume was adjusted to 50 μl with distilled water. The PCR amplification program for the reaction was: 95° C., 3 min; then 35 cycles of 95° C., 50 seconds, 52° C., 30 seconds, 72° C., 180 seconds; and with an additional 5 minutes at 72° C. at the end of the reaction. The PCR product, fragment AFSR, was separated on 1% agarose gel and recovered using QIAquick Gel Extraction Kit (QIAGEN, German). Fragment SFQR was amplified using primer pair 187SF (Example 4) and 299QR (Example 5) on the following condition: 20 mM Tris-HCl (pH 8.8), 10 mM KCl, 10 mM (NH4)2SO4, 2 mM MgSO4, 0.1% Triton X-100, 0.4 μM Primer 187SF and 0.4 μM Primer 299QR, 50 μM dATP, 50 μM dTTP, 50 μM dCTP, 50 μM dGTP, 1.5 U Pfu DNA polymerase, 20 ng pGEMT-TS, and the total volume was adjusted to 50 μl with distilled water. The PCR amplification program for the reaction was: 95° C., 3 min; then 35 cycles of 95° C., 50 seconds, 52° C., 30 seconds, 72° C., 180 seconds; and with an additional 5 minutes at 72° C. at the end of the reaction. The PCR product, fragment SFQR, was separated on 1% agarose gel and recovered using QIAquick Gel Extraction Kit (QIAGEN, German). The full-length glucose isomerase gene was then amplified on the following condition: 20 mM Tris-HCl (pH 8.8), 10 mM KCl, 10 mM (NH4)2SO4, 2 mM MgSO4, 0.1% Triton X-100, 0.4 μM Primer T1 and 0.4 μM Primer T2, 50 μM dATP, 50 μM dTTP, 50 μM dCTP, 50 μM dGTP, 1.5 U Pfu DNA polymerase, 20 ng fragment T1FR (Example 2), 20 ng fragment FFAR (Example 6), 20 ng […], 20 ng fragment SFQR and 20 ng fragment QFT2 (Example 5), and the total volume was adjusted to 50 μl with distilled water. The PCR amplification program for the reaction was: 95° C., 3 min; then 35 cycles of 95° C., 50 seconds, 52° C., 30 seconds, 72° C., 180 seconds; and with an additional 5 minutes at 72° C. at the end of the reaction. The full-length mutant MGI-4 was separated on 1% agarose gel and recovered using QIAquick Gel Extraction Kit (QIAGEN, German). Plasmid pGEMT-MGI-4, generated after ligation between MGI-4 and pGEMT-Easy, was transformed into competent E. coli HB101 and the transformants were screened for clones of glucose isomerase activity on 1% MacConkey agar plates containing 1% D-xylose and 50 mg/L ampicillin. pGEMT-MGI-4 DNA was then isolated from the positive clones and sequenced. The sequencing results confirmed that the desired site-directed mutations were correctly introduced. Its amino acid sequence was shown as SEQ ID NO.: 32 (see the Sequence Listing below).\nThe isolation and purification of glucose isomerase mutant MGI-4 were as described in Example 9, except the plasmid used was pGEMT-MGI-4. The partially purified enzyme was shown on FIG. 1. Other glucose isomerase mutants were also isolated and purified as described in Example 9."}
{"protein": "B1", "values": [{"measurement": "Km", "setting": "other: MGI-4, 65° C., 65.0 °C", "value": 27.9, "unit": "mM"}, {"measurement": "kcat", "setting": "other: MGI-4, 65° C., 65.0 °C", "value": 16.817, "unit": "s⁻¹"}, {"measurement": "kcat/Km", "setting": "other: MGI-4, 65° C., 65.0 °C", "value": 602, "unit": "M⁻¹ s⁻¹"}, {"measurement": "Km", "setting": "other: MGI-4, 80° C., 80.0 °C", "value": 51.3, "unit": "mM"}, {"measurement": "kcat", "setting": "other: MGI-4, 80° C., 80.0 °C", "value": 49.685, "unit": "s⁻¹"}, {"measurement": "kcat/Km", "setting": "other: MGI-4, 80° C., 80.0 °C", "value": 968, "unit": "M⁻¹ s⁻¹"}]}
